From patent publication US6025158A, “Nucleic acids encoding humanized anti-IL-8 monoclonal antibodies” (Genentech, Inc., dated 2000)
Read-outs that look alike come from different tables or passages of the source.

Experiments:
[1] = target: human monomeric IL-8 (human)
[2] = target: T1, recombinant human IL-8, (ser-IL-8)72 (human, UniProt P10145)
rabbit IL-8 = target: T2, rabbit IL-8 (rabbit, UniProt P19874); assay: cell-based or functional assay
T2 sequence: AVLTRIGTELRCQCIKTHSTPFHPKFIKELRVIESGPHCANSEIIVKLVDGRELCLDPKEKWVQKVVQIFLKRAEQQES

[3] = target: T1, recombinant human IL-8, (ser-IL-8)72; assay: KinExA, equilibrium, human IL-8
Protocol: The beads were resuspended in assay buffer (0.1% bovine serum albumin in PBS) to a final volume of 30 ml.
The equilibrium constant (Kd) was calculated using the software provided by Sapidyne Instruments Inc.

[4] = target: T1, recombinant human IL-8, (ser-IL-8)72; remark: listed apart in the source
[5] = system: neutrophils in bronchoalveolar lavage (BAL) fluid; assay: neutrophils in bronchoalveolar lavage (BAL) fluid of animals infected with bacteria; type: in vivo; details: infected with Streptococcus pneumoniae, Escherichia coli, or Pseudomonas aeruginosa; versus isotype control mouse IgG
Description: FIG. 12 is a graph depicting the effect of anti-IL-8 monoclonal antibody treatment on the number of neutrophils in bronchoalveolar lavage (BAL) fluid in animals infected with Streptococcus pneumoniae, Escherichia coli, or Pseudomonas aeruginosa.

[6] = target: IL-8 binding to IL-8 receptors on human neutrophils (Homo sapiens, UniProt P10145); assay: inhibition of 125I-IL-8 binding to human neutrophils (competition binding assay); details: read-out: average IC50, inhibition of 125I-IL-8 binding to human neutrophils; characterization of 6G4V11N35A Fab and F(ab')2 (FIGS. 33, 38)
[7] = target: T1, recombinant human IL-8, (ser-IL-8)72; assay: inhibition of 125I-IL-8 binding to human neutrophils
[8] = target: T1, recombinant human IL-8, (ser-IL-8)72; assay: as above; remark: listed apart in the source
[9] = target: T1, recombinant human IL-8, (ser-IL-8)72; assay: 125I-IL-8 neutrophil competition; reference by Table 4: chimeric F(ab)
[10] = system: IL-8 induced human neutrophil chemotaxis; assay: neutrophil chemotaxis induced by IL-8, Boyden chamber method; type: cell-based; details: 1:10 ratio of IL-8 to mAb
Protocol: The ability of the anti-IL-8 antibodies to block neutrophil chemotaxis induced by IL-8 was tested as follows. Neutrophil chemotaxis induced by IL-8 was determined using a Boyden chamber method (Larsen, et al. Science 243:1464 (1989)). One hundred μl of human neutrophils (10^6 cells/ml) resuspended in RPMI containing 0.1% BSA were placed in the upper chamber and 29 μl of the IL-8 (20 nM) with or without monoclonal antibodies were placed in the lower chamber. Cells were incubated for 1 hr at 37° C. Neutrophils migrated into the lower chamber were stained with Wright's Giemsa stain and counted under the microscope (100×magnification). Approximately 10 different fields per experimental group were examined. Neutralizing monoclonal antibodies 5.12.14 and 4.1.3 blocked almost 70% of the neutrophil chemotactic activity of IL-8 at 1:10 ratio of IL-8 to mAb.

[11] = isoelectric focusing (IEF); type: physicochemical; details: IEF pH 3-9
Protocol: The isoelectric focusing (IEF) pattern of each mAb was determined by applying purified antibodies on an IEF polyacrylamide gel (pH 3-9, Pharmacia) using the Fast gel system (Pharmacia, Piscataway, N.J.). The IEF gel was pretreated with pharmalyte containing 1% Triton X100 (Sigma, St. Louis, Mo.) for 10 min before loading the samples. The IEF pattern was visualized by silver staining according to the instructions from the manufacturer. All of the monoclonal antibodies had different IEF patterns, confirming that they originated from different clones.

[12] = system: human IL-8 mediated elastase release from human neutrophils; assay: IL-8 mediated release of elastase by neutrophils (mAb); type: cell-based; details: 1:1 ratio of IL-8 to mAb
Protocol: One of the antibodies, mAb 5.12.14, was further studied to determine whether it could block the IL-8 mediated release of elastase by neutrophils. Briefly, human neutrophils were resuspended in Hanks balanced salt solution (Gibco, Grand Island, N.Y.) containing 1.0% BSA, Fraction V (Sigma, St. Louis, Mo.), 2 mg/ml alpha-D-glucose (Sigma), 4.2 mM sodium bicarbonate (Sigma) and 0.01 M HEPES, pH 7.1 (JRH Bioscience, Lenexa, Kans.). A stock of cytochalasin B (Sigma) was prepared (5 mg/ml in dimethylsulfoxide (Sigma) and stored at 2-8° C. Cytochalasin B was added to the neutrophil preparation to produce a final concentration of 5 μg/ml, and incubated for 15 min at 37° C. Human IL-8 was incubated with mAb 5.12.14 (20 μl), or a negative control antibody, in 1 ml polypropylene tubes (DBM Scientific, San Fernando, Calif.) for 30 min at 37° C. The final assay concentrations of IL-8 were 50 and 500 nM. The monoclonal antibodies were diluted to produce the following ratios (IL-8:Mab): 1:50, 1:10, 1:2, 1:1, and 1:0.25. Cytochalasin B-treated neutrophils were added (100 μl/tube) and incubated for 2 hours at 25° C. The tubes were centrifuged (210×g, 2-8° C.) for 10 min, and supernatants were transferred to 96 well tissue culture plates (30 μl/well). […] Absorbance was measured at 405 nm (SLT 340 ATTC plate reader, SLT Lab Instruments, Austria).

[13] = target: T3, IL-8 binding to human neutrophils (Homo sapiens, UniProt P10145); assay: receptor binding assay: 125I-IL-8 bound to human neutrophils in presence of mAbs; details: 1:25 molar ratio of IL-8 to mAb
T3 construct: is intended to mean (ser-IL-8)72 unless otherwise specified; ubiquitin (production fusion); made in house
Protocol: Neutrophils were prepared by using Mono-Poly Resolving Medium (M-PRM) (Flow Lab. Inc., McLean, Va.). Briefly fresh, heparinized human blood was loaded onto M-PRM at a ratio of blood to medium, 3.5:3.0, and centrifuged at 300×g for 30 min at room temperature. Neutrophils enriched at the middle layer were collected and washed once in PBS. […] The receptor binding assay was done as follows. […] The mixture was then incubated with 100 μl of neutrophils (10^7 cells/ml) for 15 min at 37° C. […] The supernatant was removed by aspiration and the radioactivity associated with the pellet was counted in a gamma counter.

IL-8 [14] = target: T4, IL-8 (Homo sapiens, UniProt P10145); assay: competitive binding ELISA (epitope comparison of biotinylated and unlabeled mAbs); parameters: is intended to mean (ser-IL-8)72 unless otherwise specified; ubiquitin (production fusion); made in house; details: biotinylated mAb to unlabeled mAb 1:100
Protocol: To assess whether these monoclonal antibodies bound to the same epitopes, a competitive binding ELISA was performed. […] Thus, mAb 4.1.3 and mAb 5.2.3 bind to a different epitope(s) than the epitope recognized by monoclonal antibodies 12.3.9, 4.8 and 5.12.14.

IL-8 [15] = target: T4, IL-8; assay: radioimmune precipitation test (RIP), capture of soluble 125I-IL-8; type: binding; parameters: is intended to mean (ser-IL-8)72 unless otherwise specified; ubiquitin (production fusion); made in house
Protocol: One hundred microliters of a predetermined concentration of goat anti-mouse Ig antisera (Pel-Freez, Rogers, Ark.) were added and the mixture was incubated at room temperature for 1 hr. Immune complexes were precipitated by the addition of 0.5 ml of 6% polyethylene glycol (M.W. 8000) kept at 4° C. After centrifugation at 2,000×g for 20 min at 4° C., the supernatant was removed by aspiration and the radioactivity remaining in the pellet was counted in a gamma counter. Percent specific binding was calculated as (precipitated cpm-background cpm)/(total cpm-background cpm).

B1: 6G4V11N35A Fab (Fab, V domains shown)
VH: EVQLVQSGGGLVQPGGSLRLSCAASGYSFSSHYMHWVRQAPGKGLEWVGYIDPSNGETTYNQKFKGRFTLSRDNSKNTAYLQMNSLRAEDTAVYYCARGDYRYNGDWFFDVWGQGTLVTVSS
VL: DIQMTQSPSSLSASVGDRVTITCRSSQSLVHGIGATYLHWYQQKPGKAPKLLIYKVSNRFSGVPSRFSGSGSGTDFTLTISSLQPEDFATYYCSQSTHVPLTFGQGTKVEIKR
IC50, IL-8 mediated neutrophil chemotaxis [1]: 1 nM
IC50, IL-8 mediated PMN chemotaxis [2]: 0.8 nM
IC50, IL-8 mediated neutrophil chemotaxis (rabbit IL-8): 5 nM
Kd [3]: ~0.114 nM
IC50, human IL-8 mediated neutrophil chemotaxis [4]: 2.7 nM

B2: 6G4.2.5: murine anti-rabbit IL-8 monoclonal antibody, IgG2a, hybridoma ATCC HB 11722 (antibody, V domains shown)
VL: DIVMTQTPLSLPVSLGDQASISCRSSQSLVHGIGNTYLHWYLQKPGQSPKLLIYYKVSNRFSGVPDRFSDSGSGTDFTLRISRVEAEDLGLYFCSQSTHVPLTFGAGTKLELKR
VH: EIQLQQSGPELMKPGASVKISCKASGYSFSSHYMHWVKQSHGKSLEWIGYIDPSNGETTYNQKFKGKATLTVDTSSSTANVHLSSLTSDDSAVYFCAARGDYRYNGDWFFDVWGAGT
number of neutrophils in BAL fluid [5]: significantly reduced the number of neutrophils present in the BAL fluid
IC50 [6]: 5 nM

B3: humanized 6G425 F(ab)-1 (Fab, V domains shown)
VH: EVQLVESGGGLVQPGGSLRLSCAASGYSFSSHYMHWVRQAPGKGLEWVGYIDPSNGETTYNQKFKGRFTISRDNSKNTLYLQMNSLRAEDTAVYYCAARGDYRYNGDWFFDVWGQGT
VL: DIQMTQSPSSLSASVGDRVTITCRSSQSLVHGIGNTYLHWYQQKPGKAPKLLIYYKVSNRFSGVPSRFSGSGSGTDFTLTISSLQPEDFATYYCSQSTHVPLTFGQGTKVEIKR
IC50 [7]: 63 nM
IC50 [8]: 40 nM
fold reduction in binding affinity [9]: 5.5 fold

B4: 5.12.14: murine anti-human IL-8 monoclonal antibody, IgG2a, hybridoma ATCC HB 11553 (antibody, V domains shown)
VL: KASQNVGTNVAWYQQKPGQSPKALIYSSSYRYSGVPDRFTGSGSGTDFTLTISHVQSEDLADYFCQQYNIYPLTFGPGTKLELKRADAAPPTVSIFPPFE
VH: ASGFIFSSYGMSWVRQTPGKSLELVATINNNGDSTYYPDSVKGRFTISRDNAKNTLYLQMSSLKSEDTAMFYCARALISSATWFGYWGQGTLVTVSAAKTTAPSVYP
block of neutrophil chemotactic activity of IL-8 [10]: ~70%
pI [11]: 6.2-7.4
block of IL-8 mediated release of elastase from neutrophils [12]: able to effectively block the release of elastase from neutrophils
inhibition of binding of IL-8 to human neutrophils [13]: greater than 85%
inhibition of binding of biotinylated mAb (epitope) (IL-8 [14]): significantly inhibited by its homologous mAb but not by mAb 4.1.3
% Specific Binding to IL-8 (IL-8 [15]; 125I-IL-8, RIP): 98%
ability to capture soluble 125I-IL-8 (IL-8 [15]; RIP): captured ^125 I-IL-8 very efficiently
